Results taken from US20250163117A1 (CURE GENETICS, published 2025).

T1: mouse high-affinity IL-2 receptor IL-2Rαβγ on cells (mouse, UniProt P01590 22-268; P16297 27-539; P34902 23-369)
T1 sequence (looked up) 1: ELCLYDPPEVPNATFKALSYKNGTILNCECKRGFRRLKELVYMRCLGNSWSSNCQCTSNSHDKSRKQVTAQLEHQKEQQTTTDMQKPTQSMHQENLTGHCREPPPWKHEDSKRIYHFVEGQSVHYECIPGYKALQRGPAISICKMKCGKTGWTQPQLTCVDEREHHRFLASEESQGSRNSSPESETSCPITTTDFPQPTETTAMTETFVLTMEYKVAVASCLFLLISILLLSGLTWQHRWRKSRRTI
T1 sequence (looked up) 2: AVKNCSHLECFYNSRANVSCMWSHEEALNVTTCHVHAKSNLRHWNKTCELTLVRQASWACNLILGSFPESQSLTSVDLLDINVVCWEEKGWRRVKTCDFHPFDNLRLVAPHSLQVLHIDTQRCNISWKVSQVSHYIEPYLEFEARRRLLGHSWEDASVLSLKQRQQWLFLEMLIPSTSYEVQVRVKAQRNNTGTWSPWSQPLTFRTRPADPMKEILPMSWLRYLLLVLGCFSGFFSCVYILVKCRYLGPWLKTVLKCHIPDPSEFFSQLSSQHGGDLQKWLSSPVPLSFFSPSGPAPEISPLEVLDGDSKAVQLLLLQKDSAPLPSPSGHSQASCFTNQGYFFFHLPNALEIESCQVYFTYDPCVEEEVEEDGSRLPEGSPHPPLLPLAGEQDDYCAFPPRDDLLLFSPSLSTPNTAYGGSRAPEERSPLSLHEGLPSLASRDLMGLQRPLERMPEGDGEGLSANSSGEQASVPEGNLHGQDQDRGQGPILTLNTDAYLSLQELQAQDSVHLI
T1 sequence (looked up) 3: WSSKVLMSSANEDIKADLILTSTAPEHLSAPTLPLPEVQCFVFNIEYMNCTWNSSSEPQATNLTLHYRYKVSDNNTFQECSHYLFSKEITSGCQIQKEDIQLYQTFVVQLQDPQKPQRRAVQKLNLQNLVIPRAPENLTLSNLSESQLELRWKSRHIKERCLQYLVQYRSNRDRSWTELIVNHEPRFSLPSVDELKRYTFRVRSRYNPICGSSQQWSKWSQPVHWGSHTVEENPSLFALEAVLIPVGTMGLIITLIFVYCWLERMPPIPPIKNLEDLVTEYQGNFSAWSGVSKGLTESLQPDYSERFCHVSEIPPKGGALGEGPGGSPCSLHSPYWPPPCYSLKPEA

T2: mouse intermediate-affinity IL-2 receptor IL-2Rβγ on cells (mouse, UniProt P16297 27-539; P34902 23-369)
T2 sequence (looked up) 1: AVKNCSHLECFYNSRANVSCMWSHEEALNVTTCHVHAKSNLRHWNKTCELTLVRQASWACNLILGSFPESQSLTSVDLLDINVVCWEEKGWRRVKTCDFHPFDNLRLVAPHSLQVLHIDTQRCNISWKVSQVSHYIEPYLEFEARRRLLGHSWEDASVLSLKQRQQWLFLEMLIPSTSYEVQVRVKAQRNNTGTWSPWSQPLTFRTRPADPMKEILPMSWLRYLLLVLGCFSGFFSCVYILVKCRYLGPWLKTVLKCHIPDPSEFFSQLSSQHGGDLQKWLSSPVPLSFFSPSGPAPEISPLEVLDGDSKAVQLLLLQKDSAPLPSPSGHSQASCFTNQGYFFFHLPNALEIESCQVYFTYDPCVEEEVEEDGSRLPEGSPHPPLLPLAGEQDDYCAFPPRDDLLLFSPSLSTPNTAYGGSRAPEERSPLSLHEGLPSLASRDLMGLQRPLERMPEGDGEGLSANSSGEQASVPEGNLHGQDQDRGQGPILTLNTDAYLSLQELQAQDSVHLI
T2 sequence (looked up) 2: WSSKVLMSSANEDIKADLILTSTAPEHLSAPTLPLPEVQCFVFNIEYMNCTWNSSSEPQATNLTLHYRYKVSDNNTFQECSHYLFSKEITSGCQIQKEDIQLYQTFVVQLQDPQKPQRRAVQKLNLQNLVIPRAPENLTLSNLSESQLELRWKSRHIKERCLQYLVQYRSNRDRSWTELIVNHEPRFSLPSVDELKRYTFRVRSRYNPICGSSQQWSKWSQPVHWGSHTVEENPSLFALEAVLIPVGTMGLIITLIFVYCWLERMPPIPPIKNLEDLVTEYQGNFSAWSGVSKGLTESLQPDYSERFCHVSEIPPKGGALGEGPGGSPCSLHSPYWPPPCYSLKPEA

T3: human intermediate-affinity IL-2 receptor IL-2Rβγ on cells (human, UniProt P14784 27-551; P31785 23-369)
T3 sequence (looked up) 1: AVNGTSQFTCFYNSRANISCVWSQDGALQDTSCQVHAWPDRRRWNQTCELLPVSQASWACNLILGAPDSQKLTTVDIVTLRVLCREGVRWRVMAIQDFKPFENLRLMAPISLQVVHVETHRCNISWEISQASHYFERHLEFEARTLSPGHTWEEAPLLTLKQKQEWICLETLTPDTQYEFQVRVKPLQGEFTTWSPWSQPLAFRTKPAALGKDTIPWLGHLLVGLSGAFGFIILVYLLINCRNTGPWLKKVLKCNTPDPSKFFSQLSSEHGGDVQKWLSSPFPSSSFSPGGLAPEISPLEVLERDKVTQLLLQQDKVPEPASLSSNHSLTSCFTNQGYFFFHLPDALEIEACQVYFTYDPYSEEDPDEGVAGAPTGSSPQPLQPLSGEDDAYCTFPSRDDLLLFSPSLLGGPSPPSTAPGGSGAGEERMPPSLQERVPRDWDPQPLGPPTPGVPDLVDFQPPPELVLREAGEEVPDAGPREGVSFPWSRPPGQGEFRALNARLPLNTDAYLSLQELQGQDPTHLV
T3 sequence (looked up) 2: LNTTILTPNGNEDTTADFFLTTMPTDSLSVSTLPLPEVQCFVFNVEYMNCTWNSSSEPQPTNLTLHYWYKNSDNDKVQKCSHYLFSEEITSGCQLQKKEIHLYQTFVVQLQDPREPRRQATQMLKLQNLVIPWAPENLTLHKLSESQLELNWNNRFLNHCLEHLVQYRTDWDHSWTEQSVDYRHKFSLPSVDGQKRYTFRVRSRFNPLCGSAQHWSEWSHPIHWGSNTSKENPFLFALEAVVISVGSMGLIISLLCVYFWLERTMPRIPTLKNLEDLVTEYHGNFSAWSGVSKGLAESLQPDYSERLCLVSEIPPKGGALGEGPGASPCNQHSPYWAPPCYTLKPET

T4: human high-affinity IL-2 receptor IL-2Rαβγ on cells (human, UniProt P01589 22-272; P14784 27-551; P31785 23-369)
T4 sequence (looked up) 1: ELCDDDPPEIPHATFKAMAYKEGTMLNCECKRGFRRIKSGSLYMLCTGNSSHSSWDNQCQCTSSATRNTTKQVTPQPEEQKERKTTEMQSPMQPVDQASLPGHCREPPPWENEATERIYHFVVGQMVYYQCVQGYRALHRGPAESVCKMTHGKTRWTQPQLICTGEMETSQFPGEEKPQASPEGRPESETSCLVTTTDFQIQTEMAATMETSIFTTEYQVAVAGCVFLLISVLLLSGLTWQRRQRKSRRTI
T4 sequence (looked up) 2: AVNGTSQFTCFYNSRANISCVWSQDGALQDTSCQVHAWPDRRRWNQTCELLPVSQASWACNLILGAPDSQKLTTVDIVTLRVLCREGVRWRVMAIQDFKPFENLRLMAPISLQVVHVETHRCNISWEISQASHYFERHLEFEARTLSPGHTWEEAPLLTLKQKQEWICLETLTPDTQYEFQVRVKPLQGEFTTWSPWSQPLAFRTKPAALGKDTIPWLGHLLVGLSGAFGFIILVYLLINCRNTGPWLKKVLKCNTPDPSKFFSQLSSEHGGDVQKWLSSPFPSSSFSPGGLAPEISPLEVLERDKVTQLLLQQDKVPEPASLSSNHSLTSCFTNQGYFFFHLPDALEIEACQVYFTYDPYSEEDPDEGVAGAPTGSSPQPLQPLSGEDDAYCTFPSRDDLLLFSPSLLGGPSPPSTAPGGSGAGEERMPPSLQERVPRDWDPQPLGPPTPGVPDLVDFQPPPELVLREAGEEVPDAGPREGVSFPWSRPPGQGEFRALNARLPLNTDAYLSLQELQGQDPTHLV
T4 sequence (looked up) 3: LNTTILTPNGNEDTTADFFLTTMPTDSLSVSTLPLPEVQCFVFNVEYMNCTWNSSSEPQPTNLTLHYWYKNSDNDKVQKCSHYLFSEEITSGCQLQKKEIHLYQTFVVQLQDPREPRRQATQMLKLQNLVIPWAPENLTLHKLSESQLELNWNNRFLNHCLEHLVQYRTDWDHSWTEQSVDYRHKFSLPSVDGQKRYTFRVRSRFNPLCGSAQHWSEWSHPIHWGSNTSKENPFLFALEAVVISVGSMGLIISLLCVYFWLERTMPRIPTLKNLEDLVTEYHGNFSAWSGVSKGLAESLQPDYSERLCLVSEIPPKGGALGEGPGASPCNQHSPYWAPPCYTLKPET


Tests used:
Assay in all cases: cell-based or functional assay
[1] = biological target: T1, mouse high-affinity IL-2 receptor …
[2] = biological target: T2, mouse intermediate-affinity IL-2 …
[3] = biological target: T3, human intermediate-affinity IL-2 …
[4] = biological target: T4, human high-affinity IL-2 receptor …
[5] = biological target: T3, human intermediate-affinity IL-2 …; remark: listed apart in the source

Binder | % pSTAT5 in mouse splenocytes at Low IL-2v concentration (2.5 nM per paragraph 254); western blot, pSTAT5/STAT5 normalised to 001 High [1] [%] | % pSTAT5 in mouse splenocytes at High IL-2v concentration (25 nM per paragraph 254); western blot, pSTAT5/STAT5 normalised to 001 High [2] [%] | % pSTAT5 in human PBMC at High IL-2v concentration (25 nM per paragraph 254); western blot, pSTAT5/STAT5 normalised to 001 High [3] [%] | % pSTAT5 in human PBMC at Low IL-2v concentration (2.5 nM per paragraph 254); western blot, pSTAT5/STAT5 normalised to 001 High [4] [%] | EC50 (read off the curve): STAT5 phosphorylation in HH cells [5] [µM]
CP-trIL-2 042 (ligand) TIVEFLNRWITFSQSIISTLTGGGGSGGGGSPTSSSTKKTQLQLEHLLLDLQMILNGINNYKNPLRPRDLISNINVIVLELKGSETTELKHLQSLEEELKDLEEVLN | 13.9 | 16.1 | 9.3 | 6.2 | –
CP-trIL-2 051 (ligand) PTSSSTKKTQLQLEHLLLDLQMILNGINNYKNPTIVEFLNRWITFSQSIISTLTGGGGSGGGGSELKHLQSLEEELKPLEEVLNLAQSKNFHLRPRDLISNINVIVLELKG | 14.6 | 21.8 | 18.2 | 9.5 | –
CP-trIL-2 021 (ligand) LRPRDLISNINVIVLELKGSETTELKHLQSLEEELKPLEEVLNLAQSKNFHTIVEFLNRWITFSQSIISTLTGGGGSGGGGSPTSSSTKKTQLQLEHLLLDLQMILNGIN | – | – | – | – | ~0.03
CP-trIL-2 022 (ligand) LRPRDLISNINVIVLELKGSETTELKHLQSLEEELKDLEEVLNLAQSKNFHTIVEFLNRWITFSQSIISTLTGGGGSGGGGSPTSSSTKKTQLQLEHLLLDLQMILNGIN | 24.8 | 68.5 | 38.1 | 9.1 | ~0.02
